Measurements reported in paper PMC6996395 (FASEB bioAdvances, 2019).

Biological target: Split-CFTR front half (N-term-TMD1-NBD1; aa 1-634) (UniProt P13569 1-634)
Assay: proximity ligation

Sequence of Split-CFTR front half (N-term-TMD1-NBD1; aa 1-634) (P13569 1-634): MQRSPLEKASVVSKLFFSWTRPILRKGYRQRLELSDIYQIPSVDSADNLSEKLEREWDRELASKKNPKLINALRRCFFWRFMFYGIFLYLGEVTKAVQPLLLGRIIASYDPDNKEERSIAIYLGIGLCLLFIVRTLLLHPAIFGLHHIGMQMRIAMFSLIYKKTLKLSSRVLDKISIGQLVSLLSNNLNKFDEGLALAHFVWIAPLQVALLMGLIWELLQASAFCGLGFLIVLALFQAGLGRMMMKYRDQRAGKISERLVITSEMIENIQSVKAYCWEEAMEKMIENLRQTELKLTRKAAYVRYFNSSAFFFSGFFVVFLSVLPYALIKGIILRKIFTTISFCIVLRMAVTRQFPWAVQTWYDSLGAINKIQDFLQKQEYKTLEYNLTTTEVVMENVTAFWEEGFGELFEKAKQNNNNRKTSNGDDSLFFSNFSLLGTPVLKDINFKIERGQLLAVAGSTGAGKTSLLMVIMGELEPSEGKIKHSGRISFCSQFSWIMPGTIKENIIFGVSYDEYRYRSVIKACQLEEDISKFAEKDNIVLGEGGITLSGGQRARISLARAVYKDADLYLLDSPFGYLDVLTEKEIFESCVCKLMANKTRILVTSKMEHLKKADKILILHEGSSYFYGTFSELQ

B1: CFTR R-region R-6CA (S641A/T682A/S707A/S790A/T791A/S809A; aa 635-836) (domain or fragment, UniProt P13569 635-836, looked up)
chain: NLQPDFASKLMGCDSFDQFSAERRNSILTETLHRFSLEGDAPVSWTEAKKQSFKQTGEFGEKRKNSILNPINAIRKFSIVQKTPLQMNGIEEDSDEPLERRLSLVPDSEQGEAILPRISVISTGPTLQARRRQSVLNLMTHSVNQGQNIHRKTTAAARKVSLAPQANLTELDIYARRLSQETGLEISEEINEEDLKECFFDD
CTCF of PLA signal (after PKA stimulation): 1.4
CTCF of PLA signal (after PKC + PKA stimulation): 5.28
CTCF of PLA signal (after PKC stimulation): 5.54
CTCF of PLA signal (basal): 0.33
